From publication PMC2756588

Assays:
Test in all cases: SPOT array
Abp1, P15891 = target: T1, Abp1, P15891; conditions: median of control spots 935
T1 sequence (P15891 535-592, looked up): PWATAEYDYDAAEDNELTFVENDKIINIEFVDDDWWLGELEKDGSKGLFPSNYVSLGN

Bbc1, P47068 = target: T2, Bbc1, P47068; conditions: median of control spots 796
T2 sequence (P47068 1-78, looked up): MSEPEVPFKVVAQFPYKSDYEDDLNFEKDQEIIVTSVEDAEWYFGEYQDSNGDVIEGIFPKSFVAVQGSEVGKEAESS

Bem1-1, P29366 = conditions: median of control spots 4282
Bem1-2, P29366 = conditions: median of control spots 4347
Boi1, P38041 = target: T3, Boi1, P38041; conditions: median of control spots 1162
T3 sequence (P38041 1-86, looked up): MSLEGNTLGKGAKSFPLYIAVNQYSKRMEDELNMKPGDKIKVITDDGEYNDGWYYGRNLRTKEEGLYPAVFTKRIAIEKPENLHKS

Boi2, P39969 = target: T4, Boi2, P39969; conditions: median of control spots 1161
T4 sequence (P39969 32-116, looked up): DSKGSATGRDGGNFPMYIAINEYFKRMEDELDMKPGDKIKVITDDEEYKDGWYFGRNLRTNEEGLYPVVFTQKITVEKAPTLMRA

Bud14, P27637 = target: T5, Bud14, P27637; conditions: median of control spots 956
T5 sequence (P27637 247-328, looked up): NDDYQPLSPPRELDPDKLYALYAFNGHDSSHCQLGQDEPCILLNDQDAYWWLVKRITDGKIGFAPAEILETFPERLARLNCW

Bzz1-1, P38822 = target: T6, Bzz1-1, P38822; conditions: median of control spots 4446
T6 sequence (P38822 478-572, looked up): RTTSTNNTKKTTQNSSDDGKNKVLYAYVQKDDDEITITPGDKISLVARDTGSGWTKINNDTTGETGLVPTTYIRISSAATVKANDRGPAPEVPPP

Bzz1-2, P38822 = target: T7, Bzz1-2, P38822; conditions: median of control spots 4538
T7 sequence (P38822 568-633, looked up): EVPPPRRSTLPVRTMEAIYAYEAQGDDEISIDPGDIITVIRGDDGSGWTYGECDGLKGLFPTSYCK

Cdc25, P04821 = target: T8, Cdc25, P04821; conditions: median of control spots 969
T8 sequence (P04821 50-136, looked up): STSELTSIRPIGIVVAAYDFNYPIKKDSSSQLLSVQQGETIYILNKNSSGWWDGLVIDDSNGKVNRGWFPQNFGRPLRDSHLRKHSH

Cyk3, Q07533 = target: T9, Cyk3, Q07533; conditions: median of control spots 1451
T9 sequence (Q07533 1-83, looked up): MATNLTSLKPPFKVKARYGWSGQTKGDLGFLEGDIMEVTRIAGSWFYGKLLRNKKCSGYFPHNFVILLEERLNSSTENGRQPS

Fus1, P11710 = target: T10, Fus1, P11710; conditions: median of control spots 1200
T10 sequence (P11710 432-512, looked up): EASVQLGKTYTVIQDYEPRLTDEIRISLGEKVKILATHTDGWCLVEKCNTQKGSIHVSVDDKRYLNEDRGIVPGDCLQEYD

GST = conditions: median of control spots 978
Hof1, Q05080 = target: T11, Hof1, Q05080; conditions: median of control spots 4086
T11 sequence (Q05080 590-669, looked up): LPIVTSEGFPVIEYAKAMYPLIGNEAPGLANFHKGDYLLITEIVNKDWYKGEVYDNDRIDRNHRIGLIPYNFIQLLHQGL

Hse1, P38753 = target: T12, Hse1, P38753; conditions: median of control spots 1727
T12 sequence (P38753 208-285, looked up): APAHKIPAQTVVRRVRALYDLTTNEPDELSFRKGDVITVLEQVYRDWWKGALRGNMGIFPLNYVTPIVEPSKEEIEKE

Lsb1, P53281 = target: T13, Lsb1, P53281; conditions: median of control spots 388
T13 sequence (P53281 45-122, looked up): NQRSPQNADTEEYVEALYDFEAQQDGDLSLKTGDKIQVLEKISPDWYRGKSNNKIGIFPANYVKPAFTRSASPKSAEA

Lsb3, P43603 = target: T14, Lsb3, P43603; conditions: median of control spots 406
T14 sequence (P43603 385-451, looked up): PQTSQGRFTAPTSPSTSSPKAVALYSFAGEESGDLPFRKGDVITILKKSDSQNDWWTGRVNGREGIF

Lsb4, P32793 = target: T15, Lsb4, P32793; conditions: median of control spots 397
T15 sequence (P32793 402-468, looked up): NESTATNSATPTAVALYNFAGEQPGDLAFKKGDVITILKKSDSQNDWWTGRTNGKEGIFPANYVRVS

Myo3, P36006 = conditions: median of control spots 468
Myo5, Q04439 = target: T16, Myo5, Q04439; conditions: median of control spots 471
T16 sequence (Q04439 1072-1160, looked up): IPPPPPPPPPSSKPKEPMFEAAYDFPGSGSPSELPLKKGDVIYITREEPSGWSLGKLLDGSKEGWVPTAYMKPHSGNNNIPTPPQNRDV

Nbp2, Q12163 = target: T17, Nbp2, Q12163; conditions: median of control spots 357
T17 sequence (Q12163 103-180, looked up): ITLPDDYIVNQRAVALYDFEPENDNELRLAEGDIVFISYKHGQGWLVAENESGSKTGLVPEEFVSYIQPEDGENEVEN

Pex13, P80667 = target: T18, Pex13, P80667; conditions: median of control spots 1341
T18 sequence (P80667 295-386, looked up): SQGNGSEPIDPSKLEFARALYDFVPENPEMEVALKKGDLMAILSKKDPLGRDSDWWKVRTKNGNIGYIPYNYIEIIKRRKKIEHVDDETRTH

Pin3, Q06449 = target: T19, Pin3, Q06449; conditions: median of control spots 2171
T19 sequence (Q06449 53-122, looked up): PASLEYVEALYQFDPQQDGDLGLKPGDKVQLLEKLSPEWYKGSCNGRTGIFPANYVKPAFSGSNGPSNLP

Rvs167, P39743 = conditions: median of control spots 2707
Sho1, P40073 = conditions: median of control spots 1148
Sla1-2, P32790 = target: T20, Sla1-2, P32790; conditions: median of control spots 712
T20 sequence (P32790 60-140, looked up): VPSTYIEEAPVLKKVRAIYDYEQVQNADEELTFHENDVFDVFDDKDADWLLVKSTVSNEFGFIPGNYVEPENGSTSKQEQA

Sla1-3, P32790 = target: T21, Sla1-3, P32790; conditions: median of control spots 5475
T21 sequence (P32790 344-424, looked up): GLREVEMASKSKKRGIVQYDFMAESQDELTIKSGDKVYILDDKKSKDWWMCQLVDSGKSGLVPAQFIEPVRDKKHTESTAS

Sequence of Rvs167, P39743 (P39743 419-482): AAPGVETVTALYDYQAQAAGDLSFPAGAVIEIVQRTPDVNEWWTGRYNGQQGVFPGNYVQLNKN
Sequence of Sho1, P40073 (P40073 287-367): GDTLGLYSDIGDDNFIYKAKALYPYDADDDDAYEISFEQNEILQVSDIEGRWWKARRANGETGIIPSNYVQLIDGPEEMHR
Sequence of Bem1-2, P29366 (P29366 139-227): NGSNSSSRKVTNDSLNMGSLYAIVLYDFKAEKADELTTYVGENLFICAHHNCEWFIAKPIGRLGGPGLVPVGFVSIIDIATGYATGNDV
Sequence of Bem1-1, P29366 (P29366 55-141): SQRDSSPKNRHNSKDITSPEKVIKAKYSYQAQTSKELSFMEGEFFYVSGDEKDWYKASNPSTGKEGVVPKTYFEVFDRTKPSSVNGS

KNPRRQLQIPRQQPS
SPOT intensity (Abp1, P15891): 92 | SPOT intensity (Bbc1, P47068): 46 | SPOT intensity (Bem1-1, P29366): 2 | SPOT intensity (Bem1-2, P29366): 1 | SPOT intensity (Boi1, P38041): 0 | SPOT intensity (Boi2, P39969): 0 | SPOT intensity (Bud14, P27637): 6 | SPOT intensity (Bzz1-1, P38822): 2 | SPOT intensity (Bzz1-2, P38822): 2 | SPOT intensity (Cdc25, P04821): 54 | SPOT intensity (Cyk3, Q07533): 0 | SPOT intensity (Fus1, P11710): 0 | SPOT intensity (GST): 4 | SPOT intensity (Hof1, Q05080): 2 | SPOT intensity (Hse1, P38753): 3 | SPOT intensity (Lsb1, P53281): 216 | SPOT intensity (Lsb3, P43603): 3 | SPOT intensity (Lsb4, P32793): 8 | SPOT intensity (Myo3, P36006): 4 | SPOT intensity (Myo5, Q04439): 1 | SPOT intensity (Nbp2, Q12163): 0 | SPOT intensity (Pex13, P80667): 3 | SPOT intensity (Pin3, Q06449): 3 | SPOT intensity (Rvs167, P39743): 2 | SPOT intensity (Sho1, P40073): 99 | SPOT intensity (Sla1-2, P32790): 0 | SPOT intensity (Sla1-3, P32790): 3

YVRRRPRVRLEPLLS
SPOT intensity (Abp1, P15891): 101 | SPOT intensity (Bbc1, P47068): 273 | SPOT intensity (Bem1-1, P29366): 0 | SPOT intensity (Bem1-2, P29366): 15 | SPOT intensity (Boi1, P38041): 13 | SPOT intensity (Boi2, P39969): 17 | SPOT intensity (Bud14, P27637): 26 | SPOT intensity (Bzz1-1, P38822): 0 | SPOT intensity (Bzz1-2, P38822): 15 | SPOT intensity (Cdc25, P04821): 156 | SPOT intensity (Cyk3, Q07533): 4 | SPOT intensity (Fus1, P11710): 19 | SPOT intensity (GST): 9 | SPOT intensity (Hof1, Q05080): 20 | SPOT intensity (Hse1, P38753): 54 | SPOT intensity (Lsb1, P53281): 13 | SPOT intensity (Lsb3, P43603): 0 | SPOT intensity (Lsb4, P32793): 3 | SPOT intensity (Myo3, P36006): 5 | SPOT intensity (Myo5, Q04439): 1 | SPOT intensity (Nbp2, Q12163): 16 | SPOT intensity (Pex13, P80667): 2 | SPOT intensity (Pin3, Q06449): 2 | SPOT intensity (Rvs167, P39743): 0 | SPOT intensity (Sho1, P40073): 102 | SPOT intensity (Sla1-2, P32790): 3 | SPOT intensity (Sla1-3, P32790): 44

NFKRLLPRDPSEKSS
SPOT intensity (Abp1, P15891): 41 | SPOT intensity (Bbc1, P47068): 51 | SPOT intensity (Bem1-1, P29366): 0 | SPOT intensity (Bem1-2, P29366): 11 | SPOT intensity (Boi1, P38041): 4 | SPOT intensity (Boi2, P39969): 2 | SPOT intensity (Bud14, P27637): 12 | SPOT intensity (Bzz1-1, P38822): 1 | SPOT intensity (Bzz1-2, P38822): 10 | SPOT intensity (Cdc25, P04821): 50 | SPOT intensity (Cyk3, Q07533): 3 | SPOT intensity (Fus1, P11710): 145 | SPOT intensity (GST): 0 | SPOT intensity (Hof1, Q05080): 15 | SPOT intensity (Hse1, P38753): 72 | SPOT intensity (Lsb1, P53281): 0 | SPOT intensity (Lsb3, P43603): 0 | SPOT intensity (Lsb4, P32793): 0 | SPOT intensity (Myo3, P36006): 6 | SPOT intensity (Myo5, Q04439): 0 | SPOT intensity (Nbp2, Q12163): 12 | SPOT intensity (Pex13, P80667): 7 | SPOT intensity (Pin3, Q06449): 7 | SPOT intensity (Rvs167, P39743): 0 | SPOT intensity (Sho1, P40073): 51 | SPOT intensity (Sla1-2, P32790): 0 | SPOT intensity (Sla1-3, P32790): 156

LRWRHKFFLPAIAAI
SPOT intensity (Abp1, P15891): 0 | SPOT intensity (Bbc1, P47068): 18 | SPOT intensity (Bem1-1, P29366): 0 | SPOT intensity (Bem1-2, P29366): 1 | SPOT intensity (Boi1, P38041): 1 | SPOT intensity (Boi2, P39969): 0 | SPOT intensity (Bud14, P27637): 10 | SPOT intensity (Bzz1-1, P38822): 1 | SPOT intensity (Bzz1-2, P38822): 0 | SPOT intensity (Cdc25, P04821): 26 | SPOT intensity (Cyk3, Q07533): 4 | SPOT intensity (Fus1, P11710): 53 | SPOT intensity (GST): 0 | SPOT intensity (Hof1, Q05080): 0 | SPOT intensity (Hse1, P38753): 21 | SPOT intensity (Lsb1, P53281): 0 | SPOT intensity (Lsb3, P43603): 0 | SPOT intensity (Lsb4, P32793): 0 | SPOT intensity (Myo3, P36006): 0 | SPOT intensity (Myo5, Q04439): 0 | SPOT intensity (Nbp2, Q12163): 0 | SPOT intensity (Pex13, P80667): 3 | SPOT intensity (Pin3, Q06449): 4 | SPOT intensity (Rvs167, P39743): 0 | SPOT intensity (Sho1, P40073): 9 | SPOT intensity (Sla1-2, P32790): 0 | SPOT intensity (Sla1-3, P32790): 24
